Biological target: GFP-tagged Rab11a (UniProt P62491)
Assay: cell-based or functional assay

Chain of UniProt P62491 (P62491 whole entry): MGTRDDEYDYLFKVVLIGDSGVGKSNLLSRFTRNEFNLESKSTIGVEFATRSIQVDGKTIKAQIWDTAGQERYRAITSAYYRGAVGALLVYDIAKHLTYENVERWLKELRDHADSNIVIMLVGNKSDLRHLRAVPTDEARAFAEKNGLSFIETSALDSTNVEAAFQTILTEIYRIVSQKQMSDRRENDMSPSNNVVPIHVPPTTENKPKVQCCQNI

mCherry-MyoVa(1100-1853) fusion protein (from UniProt Q9Y4I1 1100-1828)
colocalisation (confocal microscopy, HeLa cells): 100%

From patent EP2325637A1
